Measurements from the supplement of paper PMC7877785.
± gives the uncertainty stated by the source.

Test: self-splicing fitness, log relative to wild type (ln ratio); higher = more splicing; Tetrahymena group I intron in knt gene, E. coli kanamycin selection, DiMSum; sequences stand for … in CUCUCU…GGAGGGAAAAGUUAUCAGGCAUGCACCUGGUAGCUAGUCUUUAAACCAAUAGAUUGCAUCGGUUUAAAAGGCAAGACCGUCAAAUUGCGGGAAAGGGGUCAACAGCCGUUCAGUACCAAGUCUCAGGGGAAACUUUGAGAUGGCCUUGCAAAGGGUAUGGUAAUAAGCUGACGGACAUGGUCCUAACCACGCAGCCAAGUCCUAAGUCAACAGAUCUUCUGUUGAUAUGGAUGCAGUUCACAGACUAAAUGUCGGUCGGGGAAGAUGUAUUCUUCUCAUAAGAUAUAGUCGGACCUCUCCUUAAUGGGAGCUAGCGGAUGAAGUGAUGCAACACUGGAGCCGCUGGGAACUAAUUUGUAUGCGAAAGUAUAUUGAUUAGUUUUGGAGUACUCGUGGUCG
Summary of the method: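 Six replicate transformations of E. coli BL21(DE3) with a pET-22b(+) library were grown overnight at 37°C or 30°C. The library randomised all eight P1ex-region intron nucleotides, the intron lying in the knt kanamycin-resistance gene, and plates were LB agar with or without 25 μg/mL kanamycin plus 100 μg/mL carbenicillin, 50 μM IPTG and 0.2% rhamnose. Pooled colonies were amplicon-sequenced on an Illumina HiSeq 2500, and fitness is the DiMSum error-weighted combination of wild-type-normalised replicate fold changes, kanamycin versus none.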

Row | Sequence | self-splicing fitness (ln) (30 °C) | self-splicing fitness (ln) (37 °C)
1 | UCCCAGCAAUAUUACGAGAG | -3.41 ± 0.29 | -2.14 ± 0.21
2 | GUACAGCAAUAUUACGGGAU | -3.85 ± 0.15 | -2.59 ± 0.13
3 | CAACAGCAAUAUUACGGACG | -0.191 ± 0.063 | 0.505 ± 0.082
4 | ACUAAGCAAUAUUACGGUUC | -3.92 ± 0.2 | -1.42 ± 0.13
5 | CUGAAGCAAUAUUACGCUAU | -3.68 ± 0.16 | -2.04 ± 0.14
6 | AACCAGCAAUAUUACGAGGA | -2.25 ± 0.13 | -1.51 ± 0.11
7 | ACAAAGCAAUAUUACGUGGU | -2.87 ± 0.084 | -2.99 ± 0.12
8 | CUUAAGCAAUAUUACGACUU | -4.36 ± 0.32 | -1.74 ± 0.21
9 | GCAGAGCAAUAUUACGUUCC | – | -1.51 ± 0.29
10 | CCUUAGCAAUAUUACGAGCG | -1.02 ± 0.077 | -0.792 ± 0.095
11 | ACAAAGCAAUAUUACGUUCG | -1.28 ± 0.049 | -0.0172 ± 0.067
12 | UGUCAGCAAUAUUACGCACU | -1.07 ± 0.087 | -0.0217 ± 0.12
13 | CAACAGCAAUAUUACGUCUC | -2.24 ± 0.074 | -0.669 ± 0.081
14 | ACGGAGCAAUAUUACGCAGA | -2.52 ± 0.36 | -2.02 ± 0.29
15 | CUCAAGCAAUAUUACGGGGC | -4.64 ± 0.41 | -3.31 ± 0.33
16 | UCUCAGCAAUAUUACGUGGA | -3.7 ± 0.29 | -1.05 ± 0.12
17 | CGCGAGCAAUAUUACGAUGU | -3.79 ± 0.23 | -2.74 ± 0.22
18 | GUAAAGCAAUAUUACGACAU | 0.272 ± 0.012 | 0.348 ± 0.032
19 | AUUUAGCAAUAUUACGGAUU | -2.1 ± 0.21 | -0.519 ± 0.2
20 | AUACAGCAAUAUUACGGGGA | -2.98 ± 0.21 | -2.3 ± 0.14
21 | AGAUAGCAAUAUUACGGGGU | -3.5 ± 0.16 | -2.26 ± 0.13
22 | GUUUAGCAAUAUUACGGCGA | -0.198 ± 0.23 | -0.0729 ± 0.19
23 | CUUCAGCAAUAUUACGUUUU | -1.52 ± 0.13 | -2.46 ± 0.26
24 | CUACAGCAAUAUUACGACUA | -2.2 ± 0.23 | -2.38 ± 0.35

Row | Sequence | self-splicing fitness (ln) (30 °C) | self-splicing fitness (ln) (37 °C)
25 | AGAAAGCAAUAUUACGAACC | -1.29 ± 0.17 | -0.276 ± 0.13
26 | GUAGAGCAAUAUUACGGUAA | -1.74 ± 0.15 | -1.3 ± 0.19
27 | ACGAAGCAAUAUUACGUAAG | -2.37 ± 0.1 | -1.05 ± 0.12
28 | AUUGAGCAAUAUUACGCCUG | -2.27 ± 0.33 | –
29 | CAACAGCAAUAUUACGCCGG | -0.647 ± 0.062 | 0.147 ± 0.087
30 | AUCCAGCAAUAUUACGGGCC | -1.23 ± 0.2 | -1.24 ± 0.33
31 | ACCCAGCAAUAUUACGCGGC | -2.93 ± 0.17 | -2.76 ± 0.26
32 | CAAAAGCAAUAUUACGUACA | -1.91 ± 0.1 | -1.54 ± 0.13
33 | UAACAGCAAUAUUACGGAUU | -3.02 ± 0.12 | -0.666 ± 0.094
34 | UUACAGCAAUAUUACGAGCA | -1.65 ± 0.14 | -0.698 ± 0.11
35 | CCUCAGCAAUAUUACGUUUA | -4.17 ± 0.2 | -2.57 ± 0.14
36 | GAGGAGCAAUAUUACGACUU | -2.79 ± 0.23 | -1.97 ± 0.2
37 | CACUAGCAAUAUUACGGAUA | -2.41 ± 0.28 | -2.22 ± 0.28
38 | GGCGAGCAAUAUUACGCUGA | -1.82 ± 0.2 | -2.12 ± 0.18
39 | GAGGAGCAAUAUUACGUCUU | -3.65 ± 0.2 | -2.35 ± 0.23
40 | CAUUAGCAAUAUUACGUGGG | -3.46 ± 0.17 | -2.76 ± 0.21
41 | GAUUAGCAAUAUUACGAGUC | -3.17 ± 0.27 | -2.58 ± 0.33
42 | GCAUAGCAAUAUUACGGGCA | -1.67 ± 0.14 | -0.974 ± 0.12
43 | AUUAAGCAAUAUUACGCGCA | -0.661 ± 0.13 | 0.376 ± 0.16
44 | GUACAGCAAUAUUACGAGGA | -3.11 ± 0.29 | -1.88 ± 0.23
45 | AACGAGCAAUAUUACGACUU | -0.000737 ± 0.11 | -0.7 ± 0.12
46 | UCCAAGCAAUAUUACGUAGC | -3.38 ± 0.14 | -1.38 ± 0.11
47 | GGAUAGCAAUAUUACGCAGC | -3.14 ± 0.25 | -1.59 ± 0.2
48 | GCCAAGCAAUAUUACGCCUG | -4.13 ± 0.39 | -1.13 ± 0.19

Row | Sequence | self-splicing fitness (ln) (30 °C) | self-splicing fitness (ln) (37 °C)
49 | UGCCAGCAAUAUUACGACGC | -3.03 ± 0.22 | -1.68 ± 0.25
50 | AAGUAGCAAUAUUACGUUGA | -3.64 ± 0.32 | -2.29 ± 0.22
51 | UUUGAGCAAUAUUACGCGUU | -2.4 ± 0.18 | -2.86 ± 0.42
52 | GUGUAGCAAUAUUACGGUUG | -2.88 ± 0.14 | -2.61 ± 0.16
53 | CGUGAGCAAUAUUACGAUAA | -4.37 ± 0.39 | -2.68 ± 0.23
54 | GGCCAGCAAUAUUACGCACU | -0.947 ± 0.13 | 0.319 ± 0.16
55 | GUCUAGCAAUAUUACGUCAC | -2.9 ± 0.24 | -3.04 ± 0.43
56 | GAGAAGCAAUAUUACGUACG | -1.42 ± 0.1 | -0.572 ± 0.12
57 | CUGAAGCAAUAUUACGGGAG | -0.441 ± 0.067 | -0.168 ± 0.078
58 | CGAGAGCAAUAUUACGUCCA | – | -3.02 ± 0.43
59 | UAAAAGCAAUAUUACGGUUC | -3.1 ± 0.17 | -2.42 ± 0.2
60 | GGCGAGCAAUAUUACGUGAA | -2.49 ± 0.12 | -0.0823 ± 0.13
61 | UUUUAGCAAUAUUACGGAGU | -2.29 ± 0.33 | -1.95 ± 0.28
62 | ACAUAGCAAUAUUACGCAUG | -2.85 ± 0.13 | -1.15 ± 0.12
63 | GUCGAGCAAUAUUACGUUCG | -3.55 ± 0.3 | -1.86 ± 0.25
64 | ACGGAGCAAUAUUACGAGGG | -3.45 ± 0.25 | -2.82 ± 0.32
65 | AGAAAGCAAUAUUACGCGAA | -1.95 ± 0.13 | -1.08 ± 0.16
66 | UCAGAGCAAUAUUACGAAGA | – | -2.32 ± 0.42
67 | AUAGAGCAAUAUUACGUGGA | -3.98 ± 0.27 | -3.39 ± 0.29
68 | UAGUAGCAAUAUUACGCUUA | -1.15 ± 0.14 | -0.806 ± 0.13
69 | CUACAGCAAUAUUACGACUU | -3.83 ± 0.32 | -2.81 ± 0.35
70 | GAGGAGCAAUAUUACGUCUG | -1.73 ± 0.15 | -1.07 ± 0.18
71 | CCAUAGCAAUAUUACGACUC | -3.37 ± 0.32 | -2.18 ± 0.28
72 | ACCUAGCAAUAUUACGCUUU | -1.26 ± 0.055 | -0.293 ± 0.081

Row | Sequence | self-splicing fitness (ln) (30 °C) | self-splicing fitness (ln) (37 °C)
73 | ACUCAGCAAUAUUACGCCUA | -0.864 ± 0.15 | -0.0704 ± 0.12
74 | AUGGAGCAAUAUUACGUGGC | -2.39 ± 0.29 | -2.39 ± 0.38
75 | UUAGAGCAAUAUUACGUUAA | -1.9 ± 0.13 | -0.197 ± 0.15
76 | UUGUAGCAAUAUUACGGGCG | -1.05 ± 0.14 | 0.346 ± 0.2
77 | UUUAAGCAAUAUUACGUGGA | -1.99 ± 0.18 | -1.56 ± 0.2
78 | AGGGAGCAAUAUUACGUGCG | -2.99 ± 0.2 | -2.4 ± 0.29
79 | AUAGAGCAAUAUUACGGAGG | -3.24 ± 0.22 | -1.8 ± 0.23
80 | AAAUAGCAAUAUUACGUUAA | -2.87 ± 0.2 | -2.1 ± 0.24
81 | CUAUAGCAAUAUUACGCUAC | -3.66 ± 0.17 | -2.98 ± 0.2
82 | CCGUAGCAAUAUUACGCAUU | -3.54 ± 0.31 | -2.9 ± 0.47
83 | CCCCAGCAAUAUUACGCGCA | -3.61 ± 0.27 | -1.36 ± 0.21
84 | AAAGAGCAAUAUUACGAGGU | -4.63 ± 0.26 | -2.82 ± 0.19
85 | AAACAGCAAUAUUACGGCCU | -1.51 ± 0.064 | -0.591 ± 0.071
86 | CAGCAGCAAUAUUACGCGAA | -2.55 ± 0.13 | -1.82 ± 0.15
87 | UCGAAGCAAUAUUACGUGGA | -2.29 ± 0.14 | -2.46 ± 0.16
88 | CGGAAGCAAUAUUACGCUUG | – | -2.42 ± 0.27
89 | GGCCAGCAAUAUUACGAACA | -3.34 ± 0.28 | -2.03 ± 0.19
90 | UCUAAGCAAUAUUACGACGG | 0.00998 ± 0.076 | 0.286 ± 0.11
91 | CUACAGCAAUAUUACGAGAU | -4.21 ± 0.37 | -2.96 ± 0.28
92 | CUCCAGCAAUAUUACGGAAU | -4.1 ± 0.21 | -2.27 ± 0.16
93 | CUGAAGCAAUAUUACGUGAA | -2.91 ± 0.23 | -1.93 ± 0.26
94 | CAGAAGCAAUAUUACGACGA | -1.52 ± 0.18 | -0.939 ± 0.17
95 | CUAAAGCAAUAUUACGGGGU | -3.19 ± 0.14 | -2.94 ± 0.17
96 | AUAAAGCAAUAUUACGGACC | -0.681 ± 0.16 | -0.941 ± 0.24
